Laboratory results as given in patent publication US11466067B2 (priority 2019, dated 2022).

Legend:
[1] = Tablet compression force screening: tablet properties, dimer purity and recovery; type: physicochemical
Protocol: Various compression forces were used to create F1 tablets (TABLE 31) and F2 tablets (TABLE 32). Dimer purity of the target construct was also examined following compaction into a tablet. […] Dimer recovery was also assessed following dissolution of various tablets at pH 7.0 (FIGS. 20A-20D).
An additional tablet (F3) was created, which was similar to an F1 tablet but with glyceryl dibehenate in place of magnesium stearate (TABLE 33). This substitution was made due to incompatibility of magnesium stearate in dissolution of target constructs in solution.

STAT3 phosphorylation = test: pSTAT3 and hIL-10 immunofluorescence in intestine 40 min post oral gavage; type: in vivo, rat
Protocol: This observation is consistent with findings in mice that intestinal epithelial cells can express IL-10 receptors at their apical surface under certain conditions associated with development and maintenance of barrier function. […] In order to quantify how test articles affected intestinal IL-10 signal transduction pathways, image analysis was performed: high-throughput image batches were collected, segmented by epithelial versus Lamina propria localization, and then by cellular features.

[2] = test system: polarized gut epithelial cells; test: In vivo transcytosis across gut epithelium after intraluminal injection; parameters: species or system Wistar rats; conditions: luminal application, rat jejunum
Protocol: In vivo transcytosis was tested using male Wistar rats. Male Wistar rats were housed 3-5 per cage with a 12/12 h light/dark cycle and were about 225-275 g (approximately 6-8 weeks old) when placed on study. Experiments were conducted during the light phase using a non-recovery protocol that uses continuous isoflurane anesthesia. A 4-5 cm midline abdominal incision that exposed mid-jejunum regions was conducted. Stock solutions at 3.86×10^−5M of delivery construct were prepared in phosphate buffered saline (PBS), with 50 μL (per 250 g rat) being administered by intraluminal injection (ILI) using a 29-gauge needle. The injection site mesentery was then marked with a permanent marker. At study termination, a 3-5 mm region that captured the marked intestine segment was isolated and processed for microscopic assessment. The in vivo experiments were performed in accordance with the U.K. Animals (Scientific Procedures) Act of 1986, the European Communities Council Directive of 1986 (86/609/EEC).

[3] = PK/PD by oral, subcutaneous, intravenous route in NHP; type: in vivo, Macaca fascicularis
Source text: For oral administration the IL-10 delivery construct was formulated in size 0 enteric coated capsules. For intravenous or subcutaneous administration it was formulated as a liquid in DS lyo formulation.

IL-1Ra = type: in vivo, mice; conditions: 9 mg/kg
[4] = test system: cells of the Lamina propria; test: Cell targeting in the Lamina propria after intraluminal injection (immunofluorescence); type: in vivo, Wistar rats
Protocol: Rats were anesthetized using inhaled isoflurane and euthanized by inhaled CO2.
Experiments were initiated by making an approximately 4 cm abdominal incision to access the mid-jejunum region of the small intestine. After performing the incision, 50 μl of a prepared solution of the IL-10 delivery construct (typically at about 1 mg/mL) was injected into the intestinal lumen of an area devoid of foodstuffs through a 27-gauge needle using a 1 mL syringe. The mesentery adjacent to the site of injection was labeled with a marker and the intestine was returned to the abdominal cavity, with the incision being closed with clamps.
At specific times, the injected intestine was retrieved, surgically isolated and flushed with a 4° C. isotonic PBS. Washed, excised samples were fixed (4% paraformaldehyde in PBS) overnight at 4° C. before dehydration through graded series of ethanol/water solutions and overnight incubation in chloroform.
Dehydrated tissues were immersed in wax, sectioned, and mounted on poylysine slides and processed for antigen retrieval using sodium citrate. Afterward, sections were permeabilised with 0.2% Triton-X100 in PBS prior to thrice washing in PBS and blocking with 2% BSA+2% serum of the animal the secondary antibodies have been raised. Primary antibodies were diluted in 1% BSA, 0.1% Triton-X100 in PBS and incubated overnight at 4° C. in humidified air. Fluorescent secondary antibodies were diluted in 1% BSA, 0.1% Triton-X100 in PBS and incubated for 2 h at RT prior to processing for confocal microscopy. On occasion, an approximately 1 cm section of intestine at the injection site was collected for biochemical studies.
Proteins for specific cell types were examined by immuno-fluorescence using confocal microscopy. The IL-10 delivery construct components (the carrier, also referred to herein as “cholix,” and IL-10) were followed separately with either a polyclonal antibody (pAb) or monoclonal antibody (mAb) to IL-10 or a pAb or mAb to the carrier domain to allow co-localization with pAb or mAbs available (TABLE 46).

[5] = Phase 1a single ascending dose in healthy male volunteers; type: in vivo, human; conditions: 60 and 120 mg
Protocol: In part B of the study, early data was gathered on the safety and tolerability, pharmacokinetics, pharmacodynamics and early clinical response following multiple ascending doses of the IL-10 delivery construct in Ulcerative Colitis (UC) patients (Part B).
Part A consisted of a single-ascending dose (SAD) escalation in healthy male volunteers. Six cohorts consisting of orally administered single ascending doses were conducted. At each dose level, 6 subjects were enrolled, randomized 2:4 to receive a single dose of placebo or the IL-10 delivery construct on day 1. The doses selected were 1 mg, 3 mg, 10 mg, 30 mg, 60 mg, and 120 mg.
Pre-clinical models have identified peripheral IL-1Ra production as a marker of IL-10 engagement to IL-10R in mucosal lymphocytes. To determine if the IL-10 delivery construct was actively transported across the epithelial cell lining into the Lamina propria and able to interact with lymphocytes, the levels of IL-1Ra induction was assessed.

[6] = Intracolonic spray in NHP: IL-1Ra, pSTAT3, construct, IL-10; type: in vivo, cynomolgus monkeys
Source text: This was achieved using a colonoscope with an associated spray nozzle. In this way, refined information for onset and duration of IL-1Ra induction could be obtained at specific local doses. […] The variability of pSTAT3/total STAT3 detected was consistent with tissue capture and stability challenges in this in vivo model. Measurement of tissue delivery construct levels had similar tissue capture and stability challenges, showing low and variable amounts in the tissue samples collected (FIG. 143). […] Since IL-10 can induce cells to produce more IL-10, we also looked for induced IL-10. […] It is important to note, due to the similarity of human and NHP IL-10, that ELISA values shown could also include hIL-10 that has somehow separated from the carrier domain of the delivery construct molecule. While this cannot be ruled out, no other data supports this as an outcome and it appears likely that the majority, if not all, tissue and serum IL-10 measured represents an NHP source.

B1: IL-10 delivery construct: recombinant homodimeric fusion protein: N-terminal methionine, cholix386 domain, polyGlySer spacer, recombinant human IL-10 (protein)
chain: MVEEALNIFDECRSPCSLTPEPGKPIQSKLSIPSDVVLDEGVLYYSMTINDEQNDIKDEDKGESIITIGEFATVRATRHYVNQDAPFGVIHLDITTENGTKTYSYNRKEGEFAINWLVPIGEDSPASIKISVDELDQQRNIIEVPKLYSIDLDNQTLEQWKTQGNVSFSVTRPEHNIAISWPSVSYKAAQKEGSRHKRWAHWHTGLALCWLVPMDAIYNYITQQNCTLGDNWFGGSYETVAGTPKVITVKQGIEQKPVEQRIHFSKGNAMSALAAHRVCGVPLETLARSRKPRDLTDDLSCAYQAQNIVSLFVATRILFSHLDSVFTLNLDEQEPEVAERLSDLRRINENNPGMVTQVLTVARQIYNDYVTHHPGLTPEQTSAGAQAGGGGSGGGGSGGGGSPGQGTQSENSCTHFPGNLPNMLRDLRDAFSRVKTFFQMKDQLDNLLLKESLLEDFKGYLGCQALSEMIQFYLEEVMPQAENQDPDIKAHVNSLGENLKTLRLRLRRCHRFLPCENKSKAVEQVKNAFNKLQEKGIYKAMSEFDIFINYIEAYMTMKIRN
modifications: homodimer
In the case of B1, the “robustness of protein to compaction, granulation and tableting (dimer purity)” value [1] is reported as “robust to compaction and granulation, although some aggregation was observed in final tablet form”, the “hIL-10 and pSTAT3 in intestinal tissue” value (STAT3 phosphorylation) is reported as “extensive amounts of hIL-10 and a large number of cells that were positive for pSTAT3 within the Lamina propria” and the “earliest time of IL-10 payload transport into the Lamina propria” value [2] is reported as 1 min. For the same molecule, the “systemic IL-10 after oral vs subcutaneous or intravenous administration” value ([3]; oral 1 mg or 5 mgs) was “minimal systemic levels of IL-10”, the IL-1Ra/IL-10 ratio ([3]; subcutaneous 0.2 mg/kg or intravenous 0.05 mg/kg) was “minimal effect” and the “IL-1Ra mRNA in near-distal colonic tissue” value (IL-1Ra) was “trend towards augmented mRNA expression of IL-1Ra”. The “IL-1Ra/IL-1β ratio in colonic tissue” value (IL-1Ra) was “increase in the IL-1Ra/IL-1β ratio”, the “time by which extensive amount reached the Lamina propria” value ([4]; 1-minute pulse, intraluminal injection) was at most 15 min and the “co-localization with LAMP1-positive lysosomes in enterocytes” value ([4]; 15-minute time course) was “little or no co-localization”. For the same molecule, the “co-localization with CD3 antigen (T lymphocytes)” value ([4]; Lamina propria) was “striking co-localizations”, the “co-localization with CD19-positive cells (B-lymphocytes)” value ([4]; Lamina propria) was “failed to co-localize” and the “co-localization with CD34-positive cells (endothelia)” value ([4]; Lamina propria) was “failed to co-localize”. The “co-localization with CD11c antigen (dendritic cells)” value ([4]; Lamina propria, rat jejunum) was “did not co-localize with CD11c antigen to any striking extent”, the “IL-1Ra induction at high dose” value [5] was “loss of immunomodulatory activity” and the “serum levels of the delivery construct” value ([6]; cynomolgus monkey, in vivo) was “below the assay detection limit”. For the same molecule, the “tissue IL-10 levels” value ([6]; within 15 min) was “dose-dependent and transient increases”.
